The record followed here is paper PMC7317872.

What is called stoichiometry N is the number of molecules, sites or subunits per partner or assembly. Usually Kd stands for the free concentration of one partner at which half of the binding sites on the other are occupied at equilibrium, for simple one-to-one binding. A higher Kd goes with weaker binding.

The target in experiment [1] is Cdh23 EC1 (WT) (mouse) (UniProt Q99PF4). Briefly: single-molecule force spectroscopy (AFM); protein anchored by its C terminus to cantilever and to coverslip (sortagging, PEG 5 kDa spacers); seven loading rates, contact time 500 ms; Bell-Evans fit.
The target is the same in experiment [2]. Briefly: AUC; sedimentation velocity, 142 000 g, 20 °C, pH 7.6, 25 mM HEPES, 50 mM NaCl, 25 mM KCl, 2 mM CaCl2; EC1-2 WT at 36 μM, EC1-2 E78K at 30 μM or ~440 μM, EC1 at 45 μM.
For experiment [3] the target is unchanged. Briefly: AUC; sedimentation equilibrium at three rotor speeds, 20 °C, pH 7.6, 25 mM HEPES, 50 mM NaCl, 25 mM KCl, 2 mM CaCl2; global fit to monomer-dimer equilibrium (SEDPHAT); dimer to monomers.
Experiment [4] addresses Cdh23 EC1-2 (WT) (mouse) (UniProt Q99PF4). Briefly: SAXS; proteins at 10 mg·mL^-1 in solution, SAXSpace instrument; 10 °C (methods).
Experiment [5] shares this target. Briefly: single-molecule force spectroscopy (AFM); protein anchored by its C terminus to cantilever and to coverslip (sortagging, PEG 5 kDa spacers); seven loading rates, contact time 500 ms; Bell-Evans fit.
The target is the same in experiment [6]. Briefly: AUC; sedimentation velocity, 142 000 g, 20 °C, pH 7.6, 25 mM HEPES, 50 mM NaCl, 25 mM KCl, 2 mM CaCl2; EC1-2 WT at 36 μM, EC1-2 E78K at 30 μM or ~440 μM, EC1 at 45 μM.
For experiment [7] the target is unchanged. Briefly: AUC; sedimentation equilibrium at three rotor speeds, 20 °C, pH 7.6, 25 mM HEPES, 50 mM NaCl, 25 mM KCl, 2 mM CaCl2; global fit to monomer-dimer equilibrium (SEDPHAT); dimer to monomers.
For experiment [8] the target is unchanged. Briefly: SEC; analytical SEC, Superdex 200 increase 10/300, 100 μM injected, 25 mM HEPES, 25 mM KCl, 50 mM NaCl, 2 mM CaCl2, pH 7.5; 4 °C. (In general: In gel filtration, larger molecules generally elute earlier.)
Experiment [9] has as its target Cdh23 EC1-3 (mouse). Described as above.

For the substance “Cdh23 EC1 (WT) (from UniProt Q99PF4 24-124) (domain or fragment)”, the probability of events in experiment [1] was 10%. The substance also came in with a stoichiometry N in [2] of 2. The Kd in experiment [3] came out at 52 µM.
For “Cdh23 EC1-2 (WT) (from UniProt Q99PF4 24-228) (domain or fragment)”, the stoichiometry N in experiment [4] amounted to 2. In experiment [5], this substance gave an intrinsic lifetime at zero force (τ0), high-force distribution of 1220 s; an intrinsic lifetime at zero force (τ0), low-force distribution of 1.86 s; a probability of events of 6%. This substance also came in with a stoichiometry N in [6] of 2. In experiment [7], this substance showed a Kd of 18 µM. The substance also displayed a stoichiometry N in experiment [8] of 2.
The substance Cdh23 EC1-3 (domain or fragment) showed a stoichiometry N in experiment [9] of 2.
